Test results taken from PMC7722742, “Structure of native glycolipoprotein filaments in honeybee royal jelly” (Nature Communications, 2020).

B1: major royal jelly protein 1 (natural protein, Apis mellifera, UniProt O18330 20-432, looked up)
chain: NILRGESLNKSLPILHEWKFFDYDFGSDERRQDAILSGEYDYKNNYPSDIDQWHDKIFVTMLRYNGVPSSLNVISKKVGDGGPLLQPYPDWSFAKYDDCSGIVSASKLAIDKCDRLWVLDSGLVNNTQPMCSPKLLTFDLTTSQLLKQVEIPHDVAVNATTGKGRLSSLAVQSLDCNTNSDTMVYIADEKGEGLIVYHNSDDSFHRLTSNTFDYDPKFTKMTIDGESYTAQDGISGMALSPMTNNLYYSPVASTSLYYVNTEQFRTSDYQQNDIHYEGVQNILDTQSSAKVVSKSGVLFFGLVGDSALGCWNEHRTLERHNIRTVAQSDETLQMIASMKIKEALPHVPIFDRYINREYILVLSNKMQKMVNNDFNFDDVNFRIMNANVNELILNTRCENPDNDRTPFKISIHL
modifications: N-linked glycans at Asn28, Asn144 and Asn177 (modelled: one NAG at Asn28, two NAG at Asn144, two NAG plus a BMA at Asn177)
notes: major royal jelly protein 1 (MRJP1), honeybee Apis mellifera, native glycoprotein from royal jelly; the final model holds residues 20-431; Native protein; in the filament it stands with apisimin, 24-methylenecholesterol and further unassigned lipids; also called MRJP1; MRPJ1; source: purified from commercially available royal jelly as RJ filaments (ammonium sulfate precipitation, SEC at pH 4.0)
B2: apisimin (natural protein, Apis mellifera, UniProt Q8ISL8 25-78, looked up)
chain: KTSISVKGESNVDVVSQINSLVSSIVSGANVSAVLLAQTLVNILQILIDANVFA
notes: apisimin, small (5 kDa) royal jelly protein, honeybee Apis mellifera, native; the final model holds residues 33-76; Native protein, co-purified with MRJP1 in the filaments; also called apimisin; source: purified from commercially available royal jelly as RJ filaments (ammonium sulfate precipitation, SEC at pH 4.0)

Tests used:
[1] = target: T1, MRJP1_4/apisimin4 hetero-octamer (native royal jelly filament) (Apis mellifera, UniProt O18330+Q8ISL8); assay: cryo-EM helical reconstruction, […] A; type: binding; conditions: pH 4.0; native co-purified lipid, 8 per MRJP1_4/apisimin4 unit; built starting from crystal structure PDB 5yyl
T1 construct: gene Mrjp1; native, purified from commercial royal jelly (Bio-Gelee Royale) at pH 4.0; N-glycosylated (Asn28, Asn144, Asn177); signal peptides removed; N-termini NILRGE (MRJP1) and KTSISV (apisimin); model residues 20-431 of MRJP1 and 33-76 of apisimin; 4:4 hetero-octamers stacked into helical filaments
T1 sequence (O18330 20-432): B1 chain
T1 sequence (Q8ISL8 25-78): B2 chain

[2] = target: B2; assay: quantitative Edman sequencing; purified RJ filaments (SEC fractions above 500 kDa, pH 4.0); six degradation cycles; molar ratio of the MRJP1 and apisimin residues; conditions: both partners purified
[3] = target: the molecule itself; assay: cryo-EM structure; real-space helical reconstruction of native RJ filaments purified at pH 4.0 (10 mM formic acid-NaOH pH 4.0, 150 mM NaCl), graphene oxide-coated grids, 3.5 Å
[4] = target: B1; assay: as above; conditions: both partners purified

Molecule | cryo-EM helical reconstruction, 3.5 A [1] | stoichiometry N [2] | binding result [3] | binding result [4]
C=C(CC[C@@H](C)[C@H]1CC[C@H]2[C@@H]3CC=C4C[C@@H](O)CC[C@]4(C)[C@H]3CC[C@]12C)C(C)C [24-methylenecholesterol] | Apisimin is colored in red, 24-methylenecholesterol in blue, and N-glycans in silver. | – | – | –
B1 | – | 1.15 ± 0.32 molar ratio MRJP1/apisimin | binds | –
B2 | – | – | binds | binds
